{
  "source": "patent US20190142971A1",
  "about": "“FORMULATION AND DELIVERY OF MODIFIED NUCLEOSIDE, NUCLEOTIDE, AND NUCLEIC ACID COMPOSITIONS” (ModernaTX, Inc., priority 2013, published 2019)",
  "key": {"[1]": {"tested_on": "C57/BL6 mice", "experiment": "Example 32C: G-CSF lipoplex vs saline IM, SC in mice, serum G-CSF ELISA at 13 hours (Table 57)", "assay_type": "in vivo", "conditions": "IM or SC", "experimental": "A formulation containing 100 μg of either modified human G-CSF mRNA lipoplexed with 30% by volume of RNAIMAX™ with a 5-methylcytosine (5mc) and a pseudouridine (ψ) modification (G-CSF-Gen1-Lipoplex), modified human G-CSF mRNA with a 5mc and ψ modification in saline (G-CSF-Gen1-Saline), modified human G-CSF mRNA with a N1-5-methylcytosine (N1-5mc) and a ψ modification lipoplexed with 30% by volume of RNAIMAX™ (G-CSF-Gen2-Lipoplex), modified human G-CSF mRNA with a N1-5mc and ψ modification in saline (G-CSF-Gen2-Saline), modified luciferase with a 5mc and ψ modification lipoplexed with 30% by volume of RNAIMAX™ (Luc-Lipoplex), or modified luciferase mRNA with a a 5mc and w modification in saline (Luc-Saline) was delivered intramuscularly (I.M.) or subcutaneously (S.C.) and a control group for each method of administration was giving a dose of 80 uL of the formulation buffer (F. Buffer) to C57/BL6 mice. 13 hours post injection serum and tissue from the site of injection were collected from each mouse and analyzed by G-CSF ELISA to compare human G-CSF protein levels. The results of the human G-CSF protein in mouse serum from the intramuscular administration and the subcutaneous administration results are shown in Table 57."}, "[2]": {"tested_on": "mice", "experiment": "Example 40: multi-site IM/SC G-CSF mRNA in mice, neutrophil count (Table 65)", "assay_type": "in vivo", "conditions": "day 3", "experimental": "Injection of four doses or 2×50 ug (two sites) daily for three days (24 hrs interval) was performed. The fourth dose was administered 6 hrs before blood collection and CBC analysis. […] The mice were bled at 72 hours after the first mRNA injection (6 hours after the last mRNA dose) to determine the effect of mRNA-encoded human G-CSF on the neutrophil count. The dosing regimen is shown in Table 65 as are the resulting neutrophil counts (thousands/uL). In Table 65, an asterisks (*) indicate statistical significance at p<0.05."}, "[3]": {"tested_on": "human PBMC", "experiment": "Example 45: PBMC transfection, G-CSF ELISA (Table 71)", "assay_type": "cell-based", "experimental": "(§1) The plates were then incubated at 37 C.\n(§2) Each condition was done in duplicate.\n(§3) Shown in Tables 71 and 72 are the average from 2 separate PBMC donors of the G-CSF and IFN-alpha production over time as measured by specific ELISA."}, "[4]": {"tested_on": "human PBMC", "experiment": "Example 45: PBMC transfection, IFN-alpha ELISA (Table 72)", "assay_type": "cell-based", "experimental": "as §1, §2, §3"}, "[5]": {"tested_on": "BALB/C mice", "experiment": "Example 59: G-CSF mRNA IM in mice, serum human G-CSF and mouse IFN-alpha ELISA (Table 93)", "assay_type": "in vivo", "conditions": "for Protein: Cytokine Ratio (PC Ratio): G-CSF / IFN-alpha; for human G-CSF expression in mouse serum / mouse IFN-alpha in the serum (cytokine response): IM, 8 hours"}, "[6]": {"tested_on": "Sprague Dawley rats", "experiment": "Example 60: G-CSF/Factor IX mRNA IM in rats, serum G-CSF ELISA (Table 94)", "assay_type": "in vivo", "experimental": "Protein production of modified mRNA was evaluated by delivering modified G-CSF mRNA or modified Factor IX mRNA to female Sprague Dawley rats (n=6). […] Blood was collected 8 hours after injection and the G-CSF protein level in serum was measured by ELISA."}, "[7]": {"tested_on": "BJ fibroblasts", "conditions": "for IFN-beta / IL-6: 250 ng transfected daily for 5 days"}, "[8]": {"tested_on": "mice", "experiment": "Example 41: IV lipoplexed G-CSF mRNA in mice, neutrophil count (Table 66)", "assay_type": "in vivo", "conditions": "IV 10% lipoplex, 50 ug at days 0, 2, 4; day 5", "experimental": "Neutrophils were measured at days 1, 5 and 8. Controls included non-specific mammalian RNA or the formulation buffer alone (F.Buffer). The mice were bled at days 1, 5 and 8 to determine the effect of mRNA-encoded human G-CSF to increase neutrophil count. The dosing regimen is shown in Table 66 as are the resulting neutrophil counts (thousands/uL; K/uL)."}, "[9]": {"experiment": "Example 61: storage stability of G-CSF mRNA, gel electrophoresis (Bio-Rad EXPERION)", "assay_type": "physicochemical", "experimental": "Stability experiments were conducted to obtain a better understanding of storage conditions to retain the integrity of modified RNA. […] After the mRNA had been stored for 0 hours, 2 hours, 6 hours, 24 hours, 48 hours, 5 days and 14 days, the mRNA was analyzed by gel electrophoresis using a Bio-Rad EXPERION™ system. The modified, unmodified and lipoplexed G-CSF mRNA was also stored in RNASTABLE® (Biomatrica, Inc. San Diego, Calif.) at 40° C. or water at −80° C. or 40° C. for 35 days before being analyzed by gel electrophoresis.\nmRNA samples stored at 4° C., 25° C. and 37° C. were stored in 1×TE buffer or the formulation buffer (150 mM sodium chloride, 2 mM calcium chloride, 2 mM phosphate, 0.5 mM EDTA at a pH of 6.5). The mRNA stored at 4° C. was stable to at least 60 days in both the TE and formulation buffer. At 25° C. the mRNA in formulation buffer was stable out to 14 days and the TE buffer was stable out to at least 6 days. Storage of mRNA in the formulation buffer at 37° C. was stable to 6 days compared to the TE buffer which was stable only until 4 days."}, "[10]": {"conditions": "I.M., 200 ug/mouse (R848 75 ug/mouse), 50 ul, 8 hours after dosing"}},
  "note": "Where two headings read alike, the source gives them in different places.",
  "data": [
    {"molecule": "G-CSF Gen 2: G-CSF mRNA (SEQ ID NO: 4) fully modified with 5-methylcytosine and N1-methylpseudouridine (nucleic acid, 5-methylcytosine, N1-methylpseudouridine) GGGAAAUAAGAGAGAAAAGAAGAGUAAGAAGAAAUAUAAGAGCCACCAUGGCCGGUCCCGCGACCCAAAGCCCCAUGAAACUUAUGGCCCUGCAGUUGCUGCUUUGGCACUCGGCCCUCUGGACAGUCCAAGAAGCGACUCCUCUCGGACCUGCCUCAUCGUUGCCGCAGUCAUUCCUUUUGAAGUGUCUGGAGCAGGUGCGAAAGAUUCAGGGCGAUGGAGCCGCACUCCAAGAGAAGCUCUGCGCGACAUACAAACUUUGCCAUCCCGAGGAGCUCGUACUGCUCGGGCACAGCUUGGGGAUUCCCUGGGCUCCUCUCUCGUCCUGUCCGUCGCAGGCUUUGCAGUUGGCAGGGUGCCUUUCCCAGCUCCACUCCGGUUUGUUCUUGUAUCAGGGACUGCUGCAAGCCCUUGAGGGAAUCUCGCCAGAAUUGGGCCCGACGCUGGACACGUUGCAGCUCGACGUGGCGGAUUUCGCAACAACCAUCUGGCAGCAGAUGGAGGAACUGGGGAUGGCACCCGCGCUGCAGCCCACGCAGGGGGCAAUGCCGGCCUUUGCGUCCGCGUUUCAGCGCAGGGCGGGUGGAGUCCUCGUAGCGAGCCACCUUCAAUCAUUUUUGGAAGUCUCGUACCGGGUGCUGAGACAUCUUGCGCAGCCGUGAAGCGCUGCCUUCUGCGGGGCUUGCCUUCUGGCCAUGCCCUUCUUCUCUCCCUUGCACCUGUACCUCUUGGUCUUUGAAUAAAGCCUGAGUAGGAAG", "values": [
      {"measurement": "human G-CSF protein production relative to 5-methylcytosine/pseudouridine mRNA", "setting": "[1]", "result": "increased human G-CSF protein production"},
      {"measurement": "increase in neutrophil count above control", "setting": "[2]; intramuscular", "result": "two fold increase"},
      {"measurement": "increase in neutrophil count above control", "setting": "[2]; subcutaneous", "result": "two fold increase"},
      {"measurement": "G-CSF production", "setting": "[3]", "result": "highest level of G-CSF production"},
      {"measurement": "IFN-alpha / cytokine production", "setting": "[4]", "result": "did not significantly increase cytokines"},
      {"measurement": "Protein: Cytokine Ratio (PC Ratio)", "setting": "[5]", "result": 748},
      {"measurement": "human G-CSF expression in mouse serum", "setting": "[5]", "result": "resulted in human G-CSF expression in mouse serum"},
      {"measurement": "mouse IFN-alpha in the serum (cytokine response)", "setting": "[5]", "result": "no detectable IFN-alpha"},
      {"measurement": "human G-CSF protein production, Gen 2 vs Gen 1 chemistry", "setting": "[6]; 400 ug IM, rats, 8 hours", "result": "human G-CSF protein production is improved"},
      {"measurement": "G-CSF protein in rat serum", "setting": "[6]; I.M., 400 ug in 100 ul, 5% sucrose, 8 hours after injection", "result": 64.72, "unit": "pg/mL"},
      {"measurement": "time to cytokine response (IFN-beta, IL-6)", "setting": "[7]", "result": "3 to 5", "unit": "days"},
      {"measurement": "IFN-beta", "setting": "[7]; 6 hours", "result": 0, "unit": "pg/mL"},
      {"measurement": "IL-6", "setting": "[7]; 6 hours", "result": 3337, "unit": "pg/mL"},
      {"measurement": "IFN-beta", "setting": "[7]; Day 1", "result": 0, "unit": "pg/mL"},
      {"measurement": "IL-6", "setting": "[7]; Day 1", "result": 3733, "unit": "pg/mL"},
      {"measurement": "IFN-beta", "setting": "[7]; Day 2", "result": 150, "unit": "pg/mL"},
      {"measurement": "IL-6", "setting": "[7]; Day 2", "result": 974, "unit": "pg/mL"},
      {"measurement": "IFN-beta", "setting": "[7]; Day 3", "result": 213, "unit": "pg/mL"},
      {"measurement": "IL-6", "setting": "[7]; Day 3", "result": 4972, "unit": "pg/mL"},
      {"measurement": "IFN-beta", "setting": "[7]; Day 4", "result": 1400, "unit": "pg/mL"},
      {"measurement": "IL-6", "setting": "[7]; Day 4", "result": 4122, "unit": "pg/mL"},
      {"measurement": "IFN-beta", "setting": "[7]; Day 5", "result": 350, "unit": "pg/mL"},
      {"measurement": "IL-6", "setting": "[7]; Day 5", "result": 2906, "unit": "pg/mL"}
    ]},
    {"molecule": "unmodified G-CSF mRNA: G-CSF mRNA (SEQ ID NO: 4) with natural NTPs, Cap1 (nucleic acid, Cap1) GGGAAAUAAGAGAGAAAAGAAGAGUAAGAAGAAAUAUAAGAGCCACCAUGGCCGGUCCCGCGACCCAAAGCCCCAUGAAACUUAUGGCCCUGCAGUUGCUGCUUUGGCACUCGGCCCUCUGGACAGUCCAAGAAGCGACUCCUCUCGGACCUGCCUCAUCGUUGCCGCAGUCAUUCCUUUUGAAGUGUCUGGAGCAGGUGCGAAAGAUUCAGGGCGAUGGAGCCGCACUCCAAGAGAAGCUCUGCGCGACAUACAAACUUUGCCAUCCCGAGGAGCUCGUACUGCUCGGGCACAGCUUGGGGAUUCCCUGGGCUCCUCUCUCGUCCUGUCCGUCGCAGGCUUUGCAGUUGGCAGGGUGCCUUUCCCAGCUCCACUCCGGUUUGUUCUUGUAUCAGGGACUGCUGCAAGCCCUUGAGGGAAUCUCGCCAGAAUUGGGCCCGACGCUGGACACGUUGCAGCUCGACGUGGCGGAUUUCGCAACAACCAUCUGGCAGCAGAUGGAGGAACUGGGGAUGGCACCCGCGCUGCAGCCCACGCAGGGGGCAAUGCCGGCCUUUGCGUCCGCGUUUCAGCGCAGGGCGGGUGGAGUCCUCGUAGCGAGCCACCUUCAAUCAUUUUUGGAAGUCUCGUACCGGGUGCUGAGACAUCUUGCGCAGCCGUGAAGCGCUGCCUUCUGCGGGGCUUGCCUUCUGGCCAUGCCCUUCUUCUCUCCCUUGCACCUGUACCUCUUGGUCUUUGAAUAAAGCCUGAGUAGGAAG", "values": [
      {"measurement": "increase in neutrophil count above control", "setting": "[8]", "result": "no pharmacologic effect"},
      {"measurement": "IFN-alpha / cytokine production", "setting": "[4]", "result": "substantial IFN-alpha production"},
      {"measurement": "Protein: Cytokine Ratio (PC Ratio)", "setting": "[5]", "result": 9},
      {"measurement": "G-CSF protein (human, serum)", "setting": "[5]; [10]", "result": 605.6, "unit": "pg/mL"},
      {"measurement": "IFN-alpha expression (mouse, serum)", "setting": "[5]; [10]", "result": 67.01, "unit": "pg/mL"},
      {"measurement": "PC Ratio (Protein: Cytokine Ratio)", "setting": "[5]; I.M., 200 ug/mouse (R848 75 ug/mouse), 8 hours after dosing", "result": 9},
      {"measurement": "human G-CSF expression in mouse serum", "setting": "[5]", "result": "resulted in human G-CSF expression in mouse serum"},
      {"measurement": "mouse IFN-alpha in the serum (cytokine response)", "setting": "[5]", "result": "robust cytokine response"},
      {"measurement": "freeze/thaw cycles tolerated", "setting": "[9]", "result": 12, "unit": "cycles"},
      {"measurement": "stable out to", "setting": "[9]; stored at 25° C.", "result": 48, "unit": "h"},
      {"measurement": "stable out to", "setting": "[9]; stored at 37° C.", "result": 6, "unit": "h"},
      {"measurement": "stable out to", "setting": "[9]; stored at 50° C.", "result": 2, "unit": "h"},
      {"measurement": "time to cytokine response (IFN-beta, IL-6)", "setting": "[7]", "result": "after one day"}
    ]}
  ]
}
